Earlier results in publication PMC6943629, “Binding of Gold(III) Porphyrin by the Pro-metastatic Regulatory Protein Human Galectin-3” (Molecules, 2019).

Legend:
MUC18 (Homo sapiens) = MUC18 (Homo sapiens) (UniProt P43121); test: bio-layer interferometry
[1] = target: asialofetuin (Bos taurus) (UniProt P12763)
asialofetuin (Bos taurus), sequence (P12763 19-359): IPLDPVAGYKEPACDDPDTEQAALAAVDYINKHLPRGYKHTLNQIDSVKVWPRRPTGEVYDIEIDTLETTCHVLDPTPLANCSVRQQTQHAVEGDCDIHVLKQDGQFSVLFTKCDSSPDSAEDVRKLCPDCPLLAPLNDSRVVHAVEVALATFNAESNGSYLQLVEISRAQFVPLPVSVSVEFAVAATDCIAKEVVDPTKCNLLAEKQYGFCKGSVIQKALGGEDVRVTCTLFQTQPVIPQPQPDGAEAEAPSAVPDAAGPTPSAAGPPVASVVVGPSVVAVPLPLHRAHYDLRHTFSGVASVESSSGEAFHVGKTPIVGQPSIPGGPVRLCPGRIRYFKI

galectin-3, sequence (P17931 2-250): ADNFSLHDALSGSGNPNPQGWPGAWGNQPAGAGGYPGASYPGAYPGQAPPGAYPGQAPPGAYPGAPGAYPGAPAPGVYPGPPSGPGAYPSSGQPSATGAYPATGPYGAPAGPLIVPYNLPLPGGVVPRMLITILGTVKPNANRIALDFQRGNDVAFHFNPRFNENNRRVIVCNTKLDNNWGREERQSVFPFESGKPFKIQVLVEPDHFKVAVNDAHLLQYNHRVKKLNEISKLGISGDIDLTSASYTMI
MUC18 (Homo sapiens), sequence (P43121 24-646): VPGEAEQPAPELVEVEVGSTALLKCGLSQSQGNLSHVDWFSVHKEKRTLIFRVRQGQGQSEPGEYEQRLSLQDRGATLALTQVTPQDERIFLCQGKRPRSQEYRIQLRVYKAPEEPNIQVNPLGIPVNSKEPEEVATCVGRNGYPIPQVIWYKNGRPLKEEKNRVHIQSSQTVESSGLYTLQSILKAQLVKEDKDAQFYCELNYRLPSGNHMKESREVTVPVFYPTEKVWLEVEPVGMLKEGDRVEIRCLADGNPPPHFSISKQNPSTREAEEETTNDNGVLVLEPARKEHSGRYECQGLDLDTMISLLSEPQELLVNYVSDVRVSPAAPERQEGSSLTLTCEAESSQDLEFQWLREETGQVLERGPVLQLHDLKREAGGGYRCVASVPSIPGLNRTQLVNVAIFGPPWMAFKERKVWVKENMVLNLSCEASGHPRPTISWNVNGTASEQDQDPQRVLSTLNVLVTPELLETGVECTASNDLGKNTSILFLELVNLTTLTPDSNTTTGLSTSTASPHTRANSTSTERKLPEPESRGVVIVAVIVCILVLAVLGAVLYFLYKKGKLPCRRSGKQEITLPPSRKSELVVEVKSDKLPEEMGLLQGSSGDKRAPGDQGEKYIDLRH

Kd (MUC18 (Homo sapiens)): 430 nM
Kd [1]: 720 nM
Substance: galectin-3 (from UniProt P17931)
